± gives the uncertainty stated by the source.
Test: self-splicing fitness, log relative to wild type (ln ratio); higher = more splicing; Tetrahymena group I intron in knt gene, E. coli kanamycin selection, DiMSum; sequences stand for … in CUCUCU…GGAGGGAAAAGUUAUCAGGCAUGCACCUGGUAGCUAGUCUUUAAACCAAUAGAUUGCAUCGGUUUAAAAGGCAAGACCGUCAAAUUGCGGGAAAGGGGUCAACAGCCGUUCAGUACCAAGUCUCAGGGGAAACUUUGAGAUGGCCUUGCAAAGGGUAUGGUAAUAAGCUGACGGACAUGGUCCUAACCACGCAGCCAAGUCCUAAGUCAACAGAUCUUCUGUUGAUAUGGAUGCAGUUCACAGACUAAAUGUCGGUCGGGGAAGAUGUAUUCUUCUCAUAAGAUAUAGUCGGACCUCUCCUUAAUGGGAGCUAGCGGAUGAAGUGAUGCAACACUGGAGCCGCUGGGAACUAAUUUGUAUGCGAAAGUAUAUUGAUUAGUUUUGGAGUACUCGUGGUCG
Summary of the method: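 DiMSum derived fitness as the error-weighted combination of fold changes across replicates, kanamycin versus no kanamycin, normalised to wild type. E. coli BL21(DE3) held the library, which randomised all eight P1ex-region intron nucleotides within the knt kanamycin-resistance gene on pET-22b(+). Six replicate transformations grew overnight at 37°C or 30°C on LB agar with or without 25 μg/mL kanamycin, also containing 100 μg/mL carbenicillin, 50 μM IPTG and 0.2% rhamnose, and pooled colonies were amplicon-sequenced on an Illumina HiSeq 2500.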

Sequence | self-splicing fitness (ln) (30 °C) | self-splicing fitness (ln) (37 °C)
UGGCAGCAAUAUUACGCAAU | -2.31 ± 0.099 | -1 ± 0.12
UGGCAGCAAUAUUACGCCAA | -1.03 ± 0.13 | -0.634 ± 0.12
UGGCAGCAAUAUUACGCCGA | -0.136 ± 0.092 | 0.134 ± 0.1
UGGCAGCAAUAUUACGCUGU | -2.97 ± 0.15 | -2.18 ± 0.21
UGGCAGCAAUAUUACGGCAG | -0.148 ± 0.12 | 0.163 ± 0.14
UGGCAGCAAUAUUACGGGCA | -0.0254 ± 0.11 | -0.0149 ± 0.12
UGGCAGCAAUAUUACGGGGU | -3.97 ± 0.13 | -2.62 ± 0.14
UGGCAGCAAUAUUACGGUUG | -1.46 ± 0.07 | -1.04 ± 0.082
UGGCAGCAAUAUUACGUCUG | -1.31 ± 0.082 | -0.936 ± 0.11
UGGCAGCAAUAUUACGUGCG | -0.238 ± 0.061 | 0.163 ± 0.084
UGGCAGCAAUAUUACGUUCA | -0.133 ± 0.084 | 0.272 ± 0.1
UGGCAGCAAUAUUACGUUUC | -3.1 ± 0.14 | -2.77 ± 0.26
UGGGAGCAAUAUUACGAAAC | -1.85 ± 0.22 | -1.79 ± 0.49
UGGGAGCAAUAUUACGAACA | -1.33 ± 0.088 | -1.02 ± 0.091
UGGGAGCAAUAUUACGAAUG | -1.99 ± 0.21 | -2.07 ± 0.33
UGGGAGCAAUAUUACGAGCA | -1.28 ± 0.18 | -0.71 ± 0.18
UGGGAGCAAUAUUACGAGCU | -3.52 ± 0.37 | -1.69 ± 0.25
UGGGAGCAAUAUUACGAGGA |  | -3.9 ± 0.47
UGGGAGCAAUAUUACGAGGC | -2.02 ± 0.35 | 
UGGGAGCAAUAUUACGCGUA | -0.6 ± 0.38 | 0.46 ± 0.3
UGGGAGCAAUAUUACGCUGC |  | -1.15 ± 0.28

Sequence | self-splicing fitness (ln) (30 °C) | self-splicing fitness (ln) (37 °C)
UGGGAGCAAUAUUACGCUUC | -1.91 ± 0.36 | 
UGGGAGCAAUAUUACGGAGG | -3.43 ± 0.36 | 
UGGGAGCAAUAUUACGGGCG | -2.4 ± 0.27 | -0.751 ± 0.26
UGGGAGCAAUAUUACGGGCU | -1.78 ± 0.35 | 
UGGGAGCAAUAUUACGGUAG | -3.16 ± 0.28 | -1.26 ± 0.21
UGGGAGCAAUAUUACGGUCU | -4.3 ± 0.32 | -2.09 ± 0.22
UGGGAGCAAUAUUACGGUUG | -2.07 ± 0.22 | 
UGGGAGCAAUAUUACGUAGA | -2.19 ± 0.26 | 
UGGGAGCAAUAUUACGUAGU |  | -1.82 ± 0.28
UGGGAGCAAUAUUACGUGUU | -3.63 ± 0.23 | -2.91 ± 0.34
UGGGAGCAAUAUUACGUUCG | -1.34 ± 0.22 | -0.604 ± 0.3
UGGGAGCAAUAUUACGUUUC | -3.05 ± 0.23 | -1.66 ± 0.4
UGGUAGCAAUAUUACGACAA | -0.344 ± 0.41 | -0.278 ± 0.31
UGGUAGCAAUAUUACGACUG | -0.361 ± 0.25 | -0.806 ± 0.3
UGGUAGCAAUAUUACGAGCU | -2.09 ± 0.093 | -1.02 ± 0.12
UGGUAGCAAUAUUACGCACU | -2.2 ± 0.19 | -0.474 ± 0.22
UGGUAGCAAUAUUACGGCCU | -0.807 ± 0.18 | -0.532 ± 0.39
UGGUAGCAAUAUUACGGCGU | -1.44 ± 0.12 | -0.737 ± 0.12
UGGUAGCAAUAUUACGGGUU | -4.12 ± 0.18 | -3.49 ± 0.24
UGGUAGCAAUAUUACGGUGA | -1.36 ± 0.12 | -1.34 ± 0.12
